Legend:
[1] = biological target: DR1-restricted TCR HA1.7; test: flow cytometry: HA1.7-transduced primary CD4+ T cells stained with PE wild-type DR1 dextramer and anti-CD4
[2] = biological target: DR1-restricted TCR HA1.7; test: flow cytometry: TCR-transduced primary human T cells stained with PE class II dimer and anti-CD4

Row | Substance | percent of cells in the dextramer+ CD4+ quadrant [1] | percent of cells in the dimer+ CD4+ quadrant [2]
1 | CLIP, DR1 dextramer (peptide-MHC) | 0.1% | –
2 | Control (DR1 L114W/V143M+2reps dimer) (peptide-MHC) | – | 0.1%
